The target in test [1] is microtubules polymerised from porcine tubulin (porcine) (UniProt P02550). Kind of test: FRAP.
The target is the same in test [2]. Kind of test: FRAP. The source holds these as a separate data set.

For orientation: koff means the rate constant with which the complex falls apart. High values mean a short-lived complex, low ones a long-lived complex.

Where two headings read alike, the source gives them in different places.

As to “Anillin-GFP (full-length human anillin, isoform 2, 1087 amino acids) (from UniProt Q9NQW6-2 1-1087) (natural protein)”, the koff stood at 0.26 s⁻¹ in test [1] and 1.07 s⁻¹ in test [2].
